Experiment [1] addresses T1, human 5T4 on cells (human, UniProt Q13641 32-420).
T1 sequence: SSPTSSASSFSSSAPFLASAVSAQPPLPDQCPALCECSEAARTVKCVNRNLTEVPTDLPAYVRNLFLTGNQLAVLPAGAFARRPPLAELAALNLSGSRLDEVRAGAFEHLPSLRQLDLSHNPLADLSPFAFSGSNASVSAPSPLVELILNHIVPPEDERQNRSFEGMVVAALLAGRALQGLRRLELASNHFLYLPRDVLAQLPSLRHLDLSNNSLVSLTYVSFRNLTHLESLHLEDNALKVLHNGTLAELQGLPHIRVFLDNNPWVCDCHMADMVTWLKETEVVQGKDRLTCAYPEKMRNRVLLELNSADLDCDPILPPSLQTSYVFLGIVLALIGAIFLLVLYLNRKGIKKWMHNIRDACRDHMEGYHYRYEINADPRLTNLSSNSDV
Put plainly: cell-based or functional assay.

For a further experiment, the target named is T2, FcγRI (CD64) (UniProt P12314 16-374, limits assumed).
T2 construct: whole, on cells
The experiment in a line: flow cytometry, CHO cells stably expressing CD64, fluorescent anti-human IgG secondary, MFI (mean). From the text:
ALG.APV-210 contains mutations introduced to prevent interaction with Fcγ receptors (FcγR) that could lead to FcγR-mediated T-cell activation or ADCC, ADCP, CDC etc. Binding of ALG.APV-210 was therefore tested on CHO cell transfectants stably expressing the following FcγR: FcγRI (CD64), FcγRIIa (CD32a His131), FcγRIIb (CD32b), FcγRIIIa (CD16a Val158 and CD16a Phe158), and FcγRIIIb (CD16b). Untransfected CHO cells were used as negative control. A control human IgG1 molecule was used as a positive control. Different concentrations of ALG.APV-210 or control IgG1 were incubated with the FcγR-expressing cell lines, washed, and labeled with a secondary anti-human IgG reagent. Binding of ALG.APV-210 and the control IgG1 was detected by flow cytometry.
In general terms: A flow cytometer gives signals particle by particle.

In the next experiment the target is T3, human CD137 on cells (human, UniProt Q07011 24-255).
T3 construct: also called 4-1BB; TNFRSF9 (CHO-K1/human CD137 cells)
The experiment in a line: flow cytometry, MFI of the CD137 positive cells; human CD8 T cells, MFI of CD137 positive cells. On the procedure:
(§1) Following 48 h of incubation with or without CD3, human and cynomolgus PBMC were harvested, pooled, recounted and diluted in FACS buffer (PBS+0.5% BSA, 0.05% NaN₃) to a concentration of 5×10⁶ cells/mL. 50 μL (0.25×10⁶ cells) of cell solution was added to a 96-well FACS staining plate (Falcon #351190). Following 10 min of Fc-blocking in RT using Beriglobin (hIgG, 200 μg/mL), cells were washed in FACS buffer and then incubated for 1 h in 4° C. with 100 μL of the biotinylated ALG.APV-210 or negative control. The antibodies were added in a serial dilution starting either at 5 μg/mL titrating down in a 12 step ⅓ dilution down to 0.0003 μg/mL (exp 1) or 1 μg/mL titrating down in a 12 step ½ dilution down to 0.0005 μg/mL (exp 2). […] Cells were analysed for ALG.APV-210 binding using flow cytometry by gating on viable, single cells expressing CD3 and CD8. MFI values (FMO subtracted) from 2 independent experiments as well as normalized pooled data from 2 experiments and EC₅₀-values were determined and plotted using GraphPad Prism 7, non-linear regression log (agonist) vs. normalized response—variable slope, n=6 donors/group.

Experiment [2] concerns the target T1, human 5T4 on cells. Put plainly: flow cytometry, CT26-hu5T4^int cells, streptavidin-PE, normalized MFI of 2 pooled experiments. As for the experimental part: Prior to the FACS staining, all cell lines were characterized for their 5T4 expression levels using a receptor density kit (Quantum Simply Cellular, anti-human IgG, Bangs Laboratories, Inc). Adherent cell lines were cultured according to their supplier's instructions and were harvested from their cell culture flasks using Trypsin/EDTA, counted in R10 medium in a Burker chamber, and diluted in FACS buffer (PBS+0.5% BSA, 0.05% NaN₃) to a concentration of 4×10⁶ cells/mL. 50 μL (0.20×10⁶) of cell solution was added to a 96-well FACS staining plate (Falcon #351190). Cells were incubated for 20 min in 4° C. with 50 μL of the biotinylated ALG.APV-210 (2× final concentration). The antibodies were added in a serial dilution starting at 20 μg/mL titrating down in a 12 step ½ dilution down to 0.010 μg/mL. Following 2× washing with FACS buffer, cells were incubated for 30 min in 4° C. with 100 μL of a secondary antibody (streptavidin-PE, BD #554061, diluted 1/500). […] Cells were analysed for ALG.APV-210 binding using flow cytometry (FACSVerse) by gating on single cells. MFI values (secondary antibody only subtracted) from 1 out of 2 independent experiments, as well as normalized data and EC₅₀-values of pooled data from 2 experiments were determined and plotted using GraphPad Prism 7, non-linear regression log (agonist) vs. normalized response—variable slope.

Experiment [3] addresses T4, cynomolgus CD137 on cells (cynomolgus macaque, UniProt A9YYE7 24-254).
T4 construct: whole, on cells; also called CHO-K1/cynomolgus CD137 cell line; cynomolgus monkey CD137 on CD3-stimulated primary CD8 T cells
The experiment in a line: flow cytometry, MFI of the CD137 positive cells; cynomolgus CD8 T cells, MFI of CD137 positive cells. As for the experimental part: as §1, with “control.” for “control. The antibodies were added in a serial dilution starting either at 5 μg/mL titrating down in a 12 step ⅓ dilution down to 0.0003 μg/mL (exp 1) or 1 μg/mL titrating down in a 12 step ½ dilution down to 0.0005 μg/mL (exp 2).”
ALG.APV-210 binding was also assessed by looking at the percentage of CD8 T cells bound by ALG.APV-210. […] The binding EC₅₀ values were also calculated on the MFI of the CD137 positive cells, and the results was an EC₅₀ of 0.17 nM for binding to human CD137 and 0.20 nM for cynomolgus monkey CD137.

T2 sequence (P12314 16-374 limits assumed): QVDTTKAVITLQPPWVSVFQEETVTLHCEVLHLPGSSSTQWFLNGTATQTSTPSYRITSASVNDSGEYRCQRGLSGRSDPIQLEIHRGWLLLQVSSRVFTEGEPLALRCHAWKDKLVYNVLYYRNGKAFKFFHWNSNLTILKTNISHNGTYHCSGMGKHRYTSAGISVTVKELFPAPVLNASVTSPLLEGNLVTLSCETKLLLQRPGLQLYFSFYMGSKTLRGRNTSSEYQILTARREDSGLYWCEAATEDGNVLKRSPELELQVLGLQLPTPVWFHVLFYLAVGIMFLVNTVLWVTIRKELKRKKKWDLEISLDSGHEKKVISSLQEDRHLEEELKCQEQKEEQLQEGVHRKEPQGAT
T4 sequence (A9YYE7 entry or part of it): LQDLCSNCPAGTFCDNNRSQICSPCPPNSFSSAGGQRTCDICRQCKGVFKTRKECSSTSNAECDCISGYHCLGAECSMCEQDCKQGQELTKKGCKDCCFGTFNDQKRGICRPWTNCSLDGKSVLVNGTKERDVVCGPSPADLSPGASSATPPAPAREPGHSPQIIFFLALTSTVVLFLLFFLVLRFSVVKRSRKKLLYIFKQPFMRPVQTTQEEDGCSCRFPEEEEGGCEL
T3 sequence (Q07011 24-255 limits assumed): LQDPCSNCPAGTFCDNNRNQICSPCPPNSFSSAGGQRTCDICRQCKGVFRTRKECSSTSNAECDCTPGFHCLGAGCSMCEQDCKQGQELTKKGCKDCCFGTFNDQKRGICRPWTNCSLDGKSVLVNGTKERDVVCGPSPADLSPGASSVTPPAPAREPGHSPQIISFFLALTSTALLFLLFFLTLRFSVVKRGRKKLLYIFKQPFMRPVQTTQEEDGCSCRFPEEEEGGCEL

B1: ALG.APV-210 (bispecific antibody)
chain: EVQLLESGGGLVQPGGSLRLSCAASGFTFSHGSMYWVRQAPGKGLEWVSSISSGSGSTYYADSVKGRFTISHDNSKNTLYLQMNSLRAEDTAVYYCARSSYYGSYYSIDYWGQGTLVTVSSGGGGSGGGGSGGGGSGGGGSDIQMTQSPSSLSASVGDRVTITCRASQSISSYLNWYQQKPGKAPKLLIYAASSLQSGVPSRFSGSGSGTDFTLTISSLQPEDFATYYCQQYYDNLPTFGQGTKLEIKEPKSSDKTHTCPPCPAPEAAGAPSVFLFPPKPKDTLMISRTPEVTCVVVDVSHEDPEVKFNWYVDGVEVHNAKTKPREEQYNSTYRVVSVLTVLHQDWLNGKEYKCAVSNKALPAPIEKTISKAKGQPREPQVYTLPPSRDELTKNQVSLTCLVKGFYPSDIAVEWESNGQPENNYKTTPPVLDSDGSFFLYSKLTVDKSRWQQGNVFSCSVMHEALHNHYTQKSLSLSPGSGGGGSGGGGSGGGGSPSEVQLLESGGGLVQPGGSLRLSCAASGFTFSSYAMSWVRQAPGKCLEWVSAISGSGGSTYYADSVKGRFTISRDNSKNTLYLQMNSLRAEDTAVYYCARYYGGYYSAWMDYWGQGTLVTVSSGGGGSGGGGSGGGGSGGGGSDIQMTQSPSSLSASVGDRVTITCRASQSISSFLNWYQQKPGKAPKLLIYAASSLQSGVPSRFSGSGSGTDFTLTISSLQPEDSATYYCQQTYGYLHTFGCGTKLEIKR
notes: Optimized ADAPTIR scFv-Fc-scFv homodimer with stabilizing disulfide in the 1210 scFv; also called 5T4-CD137 bispecific antibody
Consider B1, for which, in the experiment with human 5T4 on cells [1], the “EC50 (nM), IFNγ release of human CD8 T cells with CT26-h5T4^high cells” value was determined as 0.41 nM and the “EC50 (nM), IFNγ release of human CD8 T cells with CT26-h5T4^low cells” value came to 0.24 nM. The binding result with FcγRI (CD64) is “no binding (tested: 1000 nM)”.

B2: biotinylated ALG.APV-210 (bispecific antibody)
chain: EVQLLESGGGLVQPGGSLRLSCAASGFTFSHGSMYWVRQAPGKGLEWVSSISSGSGSTYYADSVKGRFTISHDNSKNTLYLQMNSLRAEDTAVYYCARSSYYGSYYSIDYWGQGTLVTVSSGGGGSGGGGSGGGGSGGGGSDIQMTQSPSSLSASVGDRVTITCRASQSISSYLNWYQQKPGKAPKLLIYAASSLQSGVPSRFSGSGSGTDFTLTISSLQPEDFATYYCQQYYDNLPTFGQGTKLEIKEPKSSDKTHTCPPCPAPEAAGAPSVFLFPPKPKDTLMISRTPEVTCVVVDVSHEDPEVKFNWYVDGVEVHNAKTKPREEQYNSTYRVVSVLTVLHQDWLNGKEYKCAVSNKALPAPIEKTISKAKGQPREPQVYTLPPSRDELTKNQVSLTCLVKGFYPSDIAVEWESNGQPENNYKTTPPVLDSDGSFFLYSKLTVDKSRWQQGNVFSCSVMHEALHNHYTQKSLSLSPGSGGGGSGGGGSGGGGSPSEVQLLESGGGLVQPGGSLRLSCAASGFTFSSYAMSWVRQAPGKCLEWVSAISGSGGSTYYADSVKGRFTISRDNSKNTLYLQMNSLRAEDTAVYYCARYYGGYYSAWMDYWGQGTLVTVSSGGGGSGGGGSGGGGSGGGGSDIQMTQSPSSLSASVGDRVTITCRASQSISSFLNWYQQKPGKAPKLLIYAASSLQSGVPSRFSGSGSGTDFTLTISSLQPEDSATYYCQQTYGYLHTFGCGTKLEIKR
notes: also called ALG.APV-210 (biotinylated for FACS detection)
Turning to B2, the 50% effective concentration (EC50) with human CD137 on cells amounted to 170 pM; in the experiment with human 5T4 on cells [2], 12000 pM; in experiment [3], 200 pM.

The term EC50 denotes the concentration at which the effect is half-maximal. Low readings indicate higher potency in that assay, high ones lower potency in that assay.

For the origin of these results see patent US20190016816A1 (APTEVO RESEARCH AND DEVELOPMENT, published 2019).
